Consider two molecules from publication PMC546141.

The term Kd denotes the concentration at which binding is half-saturated. Read a low Kd as tighter binding.

Numbering of substitutions follows the chain as printed. Names may count otherwise.

In this data set the target is T1, mPrrp-2xRBD (mouse, UniProt Q9JII5 1-201).
T1 sequence: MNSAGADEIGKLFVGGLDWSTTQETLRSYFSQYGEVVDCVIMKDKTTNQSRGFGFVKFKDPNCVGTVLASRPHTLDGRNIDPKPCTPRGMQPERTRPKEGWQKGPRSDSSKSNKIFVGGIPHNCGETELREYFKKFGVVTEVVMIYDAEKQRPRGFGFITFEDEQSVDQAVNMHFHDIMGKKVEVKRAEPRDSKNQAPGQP
Briefly: EMSA. For orientation: A gel shift assay detects complexes by their altered migration in electrophoresis.

B1: S-13 26-73 U52C (structured_RNA)
RNA: GGCAUAGCCAAAUAGUUUGUGGCCUUAGCUUAGUAUAGCUGCGGGCUAUGGGAUC
Consider B1, for which the Kd was ~55 nM.

B2: S-13 26-73 U53C (structured_RNA)
RNA: B1 RNA with C29U, U30C
For the molecule B2, the Kd is ~75 nM.
